One block for each molecule: values may come before it.
What was measured:
[1] = target: Gal-4 AD-RAR-γ fusion protein (Gal-4 activation domain joined to RAR-γ, from pACT-RAR-γ) (yeast; human) (UniProt P13631); experiment: cell-based or functional assay
[2] = target: T1, bacterially expressed glutathione-S-transferase (GST)-RAR-γ fusion protein (human) (UniProt P13631); experiment: GST pull-down: 35S-labeled N-CoR-C' on GST-RAR-γ beads, incubation 20 minutes at 37° C.; phosphoimager quantitation
T1 sequence (looked up): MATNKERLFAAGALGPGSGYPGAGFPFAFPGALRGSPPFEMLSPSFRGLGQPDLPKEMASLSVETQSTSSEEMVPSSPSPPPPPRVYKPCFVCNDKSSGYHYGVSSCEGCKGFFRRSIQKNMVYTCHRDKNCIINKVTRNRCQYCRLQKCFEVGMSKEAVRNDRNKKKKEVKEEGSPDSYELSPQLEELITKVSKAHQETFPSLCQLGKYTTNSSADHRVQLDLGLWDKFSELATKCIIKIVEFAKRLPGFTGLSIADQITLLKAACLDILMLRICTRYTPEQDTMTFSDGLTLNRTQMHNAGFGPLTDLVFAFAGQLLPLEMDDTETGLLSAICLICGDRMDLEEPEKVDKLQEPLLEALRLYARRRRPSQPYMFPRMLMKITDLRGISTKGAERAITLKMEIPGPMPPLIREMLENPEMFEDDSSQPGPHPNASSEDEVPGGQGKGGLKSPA

[3] = target: T1, bacterially expressed glutathione-S-transferase (GST)-RAR-γ fusion protein (human); experiment: GST pull-down: 35S-labeled N-CoR-C' on GST-RAR-γ beads, incubation 20 minutes at 30° C.; phosphoimager quantitation
[4] = target: T1, bacterially expressed glutathione-S-transferase (GST)-RAR-γ fusion protein (human); experiment: GST pull-down: 35S-labeled N-CoR-C' on GST-RAR-γ beads, incubation 20 minutes at 20° C.; phosphoimager quantitation

- Units of β-galactosidase activity, yeast two-hybrid in Y190; 1 µM AGN 193109, Triplicate 1 [1]: 5.91 units
- Units of β-galactosidase activity, yeast two-hybrid in Y190; 1 µM AGN 193109, Triplicate 2 [1]: 4.43 units
- Units of β-galactosidase activity, yeast two-hybrid in Y190; 1 µM AGN 193109, Triplicate 3 [1]: 4.15 units
- Units of β-galactosidase activity, yeast two-hybrid in Y190; 1 µM TTNPB, Triplicate 1 [1]: 2.26 units
- Units of β-galactosidase activity, yeast two-hybrid in Y190; 1 µM TTNPB, Triplicate 2 [1]: 1.83 units
- Units of β-galactosidase activity, yeast two-hybrid in Y190; 1 µM TTNPB, Triplicate 3 [1]: 1.96 units
- Units of β-galactosidase activity, yeast two-hybrid in Y190; Control (DMSO), Triplicate 1 [1]: 2.18 units
- Units of β-galactosidase activity, yeast two-hybrid in Y190; Control (DMSO), Triplicate 2 [1]: 2.12 units
- Units of β-galactosidase activity, yeast two-hybrid in Y190; Control (DMSO), Triplicate 3 [1]: 1.69 units
- β-Galactosidase Activity (units), yeast two-hybrid in Y190; 1 µM AGN 194310 [1]: 5.1 units
- β-Galactosidase Activity (units), yeast two-hybrid in Y190; Control (DMSO) [1]: 0.82 units
Molecule: GAL-4 DBD-N-CoR fusion protein (GAL-4 DNA binding domain fused to the full length N-CoR polypeptide, from pAS-N-CoR) (from UniProt P04386 1-147; Q60974 1-2453)

- fold increase in interaction between RAR and N-CoR (1 µM AGN 193109 against vehicle alone, 37° C.) [2]: 20.5 fold
- fold decrease in N-CoR interaction with RAR (1 µM TTNPB against vehicle alone, 30° C.) [3]: 4.5 fold
- fold increase in N-CoR interaction with RAR (1 µM AGN 193109 against vehicle alone, 30° C.) [3]: 2.2 fold
- fold decrease in N-CoR binding (1 µM TTNPB against vehicle alone, 20° C.) [4]: 2.6 fold
- fold increase in N-CoR binding (1 µM AGN 193109 against vehicle alone, 20° C.) [4]: 1.6 fold
B1: [35S]-radiolabeled in vitro translated N-CoR-C' (C-terminus of N-CoR, amino acids 1629-2453) (protein, UniProt Q60974 1629-2453, looked up)
chain: MQVNLRPDVTRGLSPREQPLGLPYPATRGIIDLTNMPPTILVPHAGGTSTPPMDRITYIPGTQVTFPPRPYNAASLSPGHPTHLAAAASAEREREREREKERERERERERERERERIAAAPADLYLRPGSEQPGRPGSHGYVRSPSPSVRTQETILQQRPSVFQGTNGTSVITPLDPTAQLRIMPLPSGGPSISQGLPASRYNTAADALAALVDAAASAPQMDVSKTKESKHEAARLEENLRSRSAAVSEQQQLEQKNLEVEKRSVQCVCTSSALPSGKAQPHASVVYSEAGKDKGPPPKSRYEEELRTRGKTTITAANFIDVIITRQIASDKDARERGSQSSDSSSSLSSHRYETASDAIEVISPASSPAPPQEKPQAYQPDMVKANQAENESTRQYEGPLHHYRSQQESPSPQQQPPLPPSSQSEGMGQVPRTHRLITLADHICQIITQDFARNQVPSQASTSTFQTSPSALSSTPVRTKTSSRYSPESQSQTVLHPRPGPRVSPENLVDKSRGSRPGKSPERSHIPSEPYEPISPPQGPAVHEKQDSMLLLSQRGVDPAEQRSDSRSPGSISYLPSFFTKLESTSPMVKSKKQEIFRKLNSSGGGDSDMAAAQPGTEIFNLPAVTTSGAVSSRSHSFADPASNLGLEDIIRKALMGSFDDKVEDHGVVMSHPVGIMPGSASTSVVTSSEARRDEGEPSPHAGVCKPKLINKSNSRKSKSPIPGQSYLGTERPSSVSSVHSEGDYHRQTPGWAWEDRPSSTGSTQFPYNPLTIRMLSSTPPTQIACAPSAITQAAPHQQNRIWEREPAPLLSAQYETLSDSDD
modifications: 35S-methionine radiolabel

From patent US6942980
